Reference: doi:10.1101/2025.11.04.686606, “The C-terminal intrinsically disordered region of a fungal LPMO binds copper and displays anti-fungal properties” (bioRxiv, 2025)

B1: PcoAA14A_FL, full-length AA14A lytic polysaccharide monooxygenase from Pycnoporus coccineus (enzyme, UniProt A0A2I6QAZ5 22-428, looked up)
chain: HAAFWDKSMYGFNVTAQTFPYDNRPQVPLYNMTFDQWWFHGHKDYPPNEGDFFELPAGGEVNSIISCDKGATPFYESSPGGDSGYGSNSPCPGQPMSEYHTTGIDDVKGCCMAIAYKPDVNDVQPDDFVVFSCNSTCVWEMNTKFEIPKLPACPEGGCHCAWFWIHSYDSGAEQIYMNGFKCKVTGDVGTQPLGKPAVPRRCGADPDHGKPDPTPGNCTIGAKTPMYWYQREGNNMFEDTYDAPYYNPLYGFNDGAQNDIFMDGVIASLASSGTGSSPTSTVDSSSSAAAASTSYPAQPTSSTQDAPGSSAYPSSSSDSVNSPTTQPYPASSASSTSEAQTTPAAVPTSVATEASSSPIASTTVDEAVVSSSTVGSINPTRSCKPRPSGVAAQKKKRKHARHLHNAH
modifications: glycosylated (glycans 34% of the molar mass by SEC-MALLS)
notes: PcoAA14A, AA14 family LPMO of Pycnoporus coccineus (syn. Trametes coccinea), Genbank KY769369; catalytic domain followed by a dCTR of 137 residues; theoretical mass 46 kDa; Expressed from pPICZalphaA; source: Pichia pastoris SuperMan5, secreted, purified (HisTrap); not shown: His6, C-terminal, kept
B2: P3 peptide, last 25 residues of PcoAA14A_dCTR (peptide, UniProt A0A2I6QAZ5 404-428, looked up)
peptide: CKPRPSGVAAQKKKRKHARHLHNAH
notes: the last 25 residues of PcoAA14A of Pycnoporus coccineus, starting with a Cys corresponding to Cys404; Unlabelled peptide in EPR and SAXS; the 5-FAM labelled form was used only on fungal spores; source: synthetic peptide, bought: GenScript

Experiments:
[1] = molecular target: the molecule itself; experiment: SEC-MALLS; Superdex200 10/300 GL Increase, 50 mM MES pH 6.5, 150 mM NaCl; protein conjugate analysis for glycans
[2] = molecular target: the molecule itself; experiment: SAXS; P3 at 2 mg/mL; conformational ensembles from 1 us MD simulations refined against SAXS data (Bayesian maximum entropy)

Protein | stoichiometry N [1] | stoichiometry N [2]
B1 | 2 | –
B2 | – | 2
